One assay concerns the target Human tau (human, UniProt P10636 1-441). Kind of assay: direct binding ELISA.
A further assay concerns the target Human alpha-synuclein (human, UniProt P37840 1-140). Kind of assay: direct binding ELISA.

Human tau, sequence (P10636 other isoform, or with tags, fused parts or gaps): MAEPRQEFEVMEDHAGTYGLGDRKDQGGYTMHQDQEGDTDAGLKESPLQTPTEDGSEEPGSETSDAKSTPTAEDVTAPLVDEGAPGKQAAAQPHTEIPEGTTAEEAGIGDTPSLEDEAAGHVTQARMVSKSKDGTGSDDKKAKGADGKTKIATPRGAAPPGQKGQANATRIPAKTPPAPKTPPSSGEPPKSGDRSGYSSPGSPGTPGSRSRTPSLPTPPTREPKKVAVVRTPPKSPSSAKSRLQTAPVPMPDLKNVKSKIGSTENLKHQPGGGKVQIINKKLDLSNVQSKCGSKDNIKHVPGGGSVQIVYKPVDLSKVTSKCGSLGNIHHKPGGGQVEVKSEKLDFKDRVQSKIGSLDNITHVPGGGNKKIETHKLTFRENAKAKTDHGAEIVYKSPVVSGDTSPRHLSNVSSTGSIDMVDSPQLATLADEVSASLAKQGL

B1: 6C5 hIgG1 (antibody, V domains shown)
VH: QVQLVESGGGVVQPGRSLRVSCAASGFTFSSYDMHWVRQAPGKGLEWVAVIWFDGSNEFYADSVKGRFTISRDNSKNTLFLQMNSLRAEDTAVYYCARDLGASVTTSNAENFHHWGQGTLVTVSS
VL: SYELTQPPSVSVSPGQTARITCSGDALPKRYVYWYQQKSGQAPVLVIYEDSKRPSGIPETFSGSSSGTMATLTISGAQVEDEADYYCYSTDSNGHHWVFGGGTKLTVLG
For the molecule B1, in the assay with Human tau, a half-maximal effect (EC50) was put at 0.52 nM.

B2: FC5-H62(T33C/A104C)-G4S-6C5 hIgG1 (HC) (bispecific antibody)
heavy: not shown
light: SYELTQPPSVSVSPGQTARITCSGDALPKRYVYWYQQKSGQAPVLVIYEDSKRPSGIPETFSGSSSGTMATLTISGAQVEDEADYYCYSTDSNGHHWVFGGGTKLTVLGQPKAAPSVTLFPPSSEELQANKATLVCLISDFYPGAVTVAWKADSSPVKAGVETTTPSKQSNNKYAASSYLSLTPEQWKSHRSYSCQVTHEGSTVEKTVAPTECS
B2 gave an EC50 in the assay with Human tau of 0.74 nM.

B3: 12F4 hIgG1 (antibody, V domains shown)
VH: EVQLVESGGGLVEPGGSLRLSCAVSGFDFEKAWMSWVRQAPGQGLQWVARIKSTADGGTTSYAAPVEGRFIISRDDSRNMLYLQMNSLKTEDTAVYYCTSAHWGQGTLVTVSS
VL: SYELTQPPSVSVSPGQTARITCSGEALPMQFAHWYQQRPGKAPVIVVYKDSERPSGVPERFSGSSSGTTATLTITGVQAEDEADYYCQSPDSTNTYEVFGGGTKLTVLS
In the case of B3, in the assay with Human alpha-synuclein, the response was half-maximal at 2.7 nM (EC50).

B4: FC5-H62(T33C/A104C)-G4S-6C5 (LC) (bispecific antibody)
heavy: not shown
light: DVQLVESGGGLVQPGGSLRLSCAASGFKITHYCTGWFRQAPGKEREFVSRITWGGDNTFYSNSVKGRFTISRDNSKNTVYLQMNSLRAEDTAVYYCAAGSTSTCTPLRVDYWGQGTLVTVSSGGGGSSYELTQPPSVSVSPGQTARITCSGDALPKRYVYWYQQKSGQAPVLVIYEDSKRPSGIPETFSGSSSGTMATLTISGAQVEDEADYYCYSTDSNGHHWVFGGGTKLTVLGQPKAAPSVTLFPPSSEELQANKATLVCLISDFYPGAVTVAWKADSSPVKAGVETTTPSKQSNNKYAASSYLSLTPEQWKSHRSYSCQVTHEGSTVEKTVAPTECS
In turn, B4 gave an EC50 with Human tau of 0.98 nM.

Values taken from patent US20220089704A1 (published 2022).
